Laboratory results published in US20070154994A1.

Experiments:
[1] = molecular target: Recombinant human TGF-β1 (human) (UniProt P01137); assay: SPR, TGF-β1 coupled, rearrangement model, Kdiss#1
[2] = molecular target: Recombinant human TGF-β1 (human) (UniProt P01137); assay: SPR, TGF-β1 coupled, rearrangement model, kass#1
[3] = molecular target: Recombinant human TGF-β1 (human) (UniProt P01137); assay: SPR, TGF-β1 coupled, rearrangement model, rearrangement step
[4] = molecular target: Recombinant human TGF-β1 (human) (UniProt P01137); assay: SPR, TGF-β1 coupled, rearrangement model, Kd 1 (initial binding step)
[5] = molecular target: Recombinant human TGF-β1 (human) (UniProt P01137); assay: SPR, TGF-β1 coupled, rearrangement model, Kdapp

Chain of Recombinant human TGF-β1 (human) (P01137 279-390 limits assumed): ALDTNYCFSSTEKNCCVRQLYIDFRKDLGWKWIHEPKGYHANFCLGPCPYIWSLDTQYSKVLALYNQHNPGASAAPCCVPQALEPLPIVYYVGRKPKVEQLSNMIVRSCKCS

B1: untagged CtermTβRIIIED (receptor, UniProt P26342 576-782, looked up)
chain: RQLRNPSGFQGQLDGNATFNMELYNTDLFLVPSPGVFSVAENEHVYVEVSVTKADQDLGFAIQTCFLSPYSNPDRMSDYTIIENICPKDDSVKFYSSKRVHFPIPHAEVDKKRFSFLFKSVFNTSLLFLHCELTLCSRKKGSLKLPRCVTPDDACTSLDATMIWTMMQNKKTFTKPLAVVLQVDYKENVPSTKDSSPIPPPPPQIFH
With B1 the koff [1] was 0.0535 s⁻¹, the kon [2] was 75000 M⁻¹ s⁻¹ and the kass#2 [3] was 0.0029 s⁻¹. For the same binder, the kd 2 (no unit) [3] was 0.73 no unit, the kdiss#2 [3] was 0.00217 s⁻¹ and the Kd [4] was 713 nM. For the same binder, the Kd [5] was 302 nM.
